Reference: patent US20240270826A1 (NATIONAL RESEARCH COUNCIL OF CANADA, published 2024)

B1: NRCoV2-S2G3 VHH (VHH)
VHH: QVQLVQSGGGSVQAGGSLRLSCAASGSTFGIFLMGWRRQAPGKQRELVAHITSGGATNYADSVKGRFTISRDNAKNTVYLQMNSLEPEDTAVYYCYTTKRDDASVYWGQGTQVTVSS
B2: NRCoV2-S2F3 VHH (VHH)
VHH: EVQLVQSGGGLVQAGGSLRLSCATSVRILSVPAMGWYRQAPGKEREMVAVITSGGSTNYADSVKGRFTISRDNAKNTVYLQMNSLKLEDTAVYQCNLRDILSQPFWGQGTQVTVSS
B3: NRCoV2-MRed06 VHH (VHH)
VHH: EVQLVESGGGLVQAGGSLRLSCAASGFTLAYYAIGWFRQAPGKEREGVSCISSSDGSAHYADSVKGRFTISRDNAKNTVSLQMNSLKPEDTAVYYCATDSFSSCSDYESGMDFWGKGTQVTVSS
B4: NRCoV2-S2A4 VHH (VHH)
VHH: QVQLVQSGGGLVQAGGSLRLSCAVSGSPFRSNVMEWYRQAPGKQRELVASISTGGSRTYTDSVKGRFTISRDNAKNEAFLQMNSLKPEDTAVYYCHAAARDSHGIYLLDTWGQGTQVTVSS
B5: NRCoV2-SR03 VHH (VHH)
VHH: AVQLVDSGGGLVQAGGSLRLSCAASGSIFSNNHMGWYRQAPGKQRELVAAISSGGKTNYADFAKGRFTISRDNAKNMVYLQMNSLKPEDTAVYYCNRGGWEYRSSYYIMGPHWGQGTQVTVSS
B6: NRCoV2-MRed07 VHH (VHH)
VHH: EVQLVESGGGLVQPGGSLTLSCAASGSIGPFNTMGWYRQAPGNQREPAAIITRGGVTNYADSVKGRFTISRDNAKNAVYLQMDSLKPDDTAVYYCYANYGWAIPYWGNGTQVTVSS
B7: NRCoV2-MRed03 VHH (VHH)
VHH: EVQLVESGGGLVQPGGSLRLSCAAIGFTLDYYAIGWFRQAPGKEREGVSCISSSDGSTYYADSVKGRFTISRDNAKNTVYLQMNSLKPEDTAVYYCATDAFATCDSWYAQIAQYDFRGQGTQVTVSS
B8: NRCoV2-SR16 VHH (VHH)
VHH: QVQLVQSAGGLVQAGGSLRLSCVVSGTTFSRYHMGWHRQAPGKQRDFVAGISTSGAVTYADSAKGRFTISRDNAKNTVYLEMNSLKLEDTALYYCNTGGWDYRSSTFIMGLNWGQGTQVTVSS
B9: NRCoV2-SR04 VHH (VHH)
VHH: QVQLVESGGGLVQAGGSLRLSCAASGRTFSSHTVGWYRQAPGKQRDLVAAISMGGNTNYADYADSVKGRFTISRDNAKNTLYLQMNSLKPEDTAVYYCNTAALVGNRLLPMATITWGQGTQVTVSS

target: T1, Human SARS-CoV-2_Wuhan S (SmT1) (SARS-CoV-2 (Wuhan), UniProt P0DTC2 14-1208); assay: SPR, VHH over immobilised S

First: B1
Second: B2
The Kd of the first is 1.6-fold lower: 1.87 nM for the first, 3.03 nM for the second.

First: B3
Second: B4
The Kd of the first is 2.5-fold lower: 5.19 nM for the first, 12.8 nM for the second. The first binds more tightly here.

First: B5
Second: B6
The Kd of the first is 16-fold higher: 1.69 nM for the first, 0.105 nM for the second.

Compared with B7, B8 is 3.9-fold higher in Kd: 0.508 nM for the first, 1.96 nM for the second. The first binds more tightly here.

Work on B9 yielded a Kd of 0.14 nM.

B1 and B2 are within 1.5-fold of each other in koff: 0.000606 s⁻¹ for the first, 0.000473 s⁻¹ for the second.

First: B3
Second: B4
The koff of the first is 2.2-fold higher: 0.000996 s⁻¹ for the first, 0.000446 s⁻¹ for the second.

First: B5
Second: B6
The koff of the first is 2.3-fold higher: 0.00113 s⁻¹ for the first, 0.000481 s⁻¹ for the second.

Compared with B7, B8 is 7.9-fold higher in koff: 0.000121 s⁻¹ for the first, 0.000957 s⁻¹ for the second.

For B9, the koff was 0.000515 s⁻¹.

First: B1
Second: B2
The kon of the first is 2.1-fold higher: 324000 M⁻¹ s⁻¹ for the first, 156000 M⁻¹ s⁻¹ for the second.

First: B3
Second: B4
The kon of the first is 5.5-fold higher: 192000 M⁻¹ s⁻¹ for the first, 34900 M⁻¹ s⁻¹ for the second.

First: B5
Second: B6
The kon of the first is 6.8-fold lower: 670000 M⁻¹ s⁻¹ for the first, 4.58e+06 M⁻¹ s⁻¹ for the second.

First: B7
Second: B8
The kon of the first is 2.1-fold lower: 237000 M⁻¹ s⁻¹ for the first, 488000 M⁻¹ s⁻¹ for the second.

With B9 the kon was 3.68e+06 M⁻¹ s⁻¹.

target: SARS-CoV spike (S) (SARS-CoV, UniProt P59594 14-1195); assay: SPR, VHH over immobilised S

B1 and B2 are within 1.5-fold of each other in Kd: 4.27 nM for the first, 4.91 nM for the second.

First: B1
Second: B2
The koff of the first is 1.7-fold lower: 0.0008 s⁻¹ for the first, 0.00139 s⁻¹ for the second.

Going from B1 to B2, the kon rises from 187000 M⁻¹ s⁻¹ to 282000 M⁻¹ s⁻¹ (1.5-fold).

B3: no binding.
B4: no binding.
B5: no binding.
B6: no binding.
B7: no binding.
B8: no binding.
B9: no binding.

target: T1, Human SARS-CoV-2_Wuhan S (SmT1); assay: SPR, VHH over immobilised S; remark: another data set of the same source

Going from B1 to B2, the Kd rises from 1.87 nM to 3.03 nM (1.6-fold).

Going from B3 to B4, the Kd rises from 5.2 nM to 12.8 nM (2.5-fold).

First: B5
Second: B6
The Kd of the first is 15-fold higher: 1.69 nM for the first, 0.11 nM for the second. The second binds more tightly here.

First: B7
Second: B8
The Kd of the first is 3.9-fold lower: 0.51 nM for the first, 2 nM for the second.

B9 gave a Kd of 0.14 nM.
